# Measured values from paper PMC5603418 (The FEBS journal, 2017).
# T1: Bdellovibrio bacteriovorus proline utilization A (BbPutA) (Bdellovibrio bacteriovorus, UniProt Q6MNK1)
# T1 sequence (Q6MNK1 1-982): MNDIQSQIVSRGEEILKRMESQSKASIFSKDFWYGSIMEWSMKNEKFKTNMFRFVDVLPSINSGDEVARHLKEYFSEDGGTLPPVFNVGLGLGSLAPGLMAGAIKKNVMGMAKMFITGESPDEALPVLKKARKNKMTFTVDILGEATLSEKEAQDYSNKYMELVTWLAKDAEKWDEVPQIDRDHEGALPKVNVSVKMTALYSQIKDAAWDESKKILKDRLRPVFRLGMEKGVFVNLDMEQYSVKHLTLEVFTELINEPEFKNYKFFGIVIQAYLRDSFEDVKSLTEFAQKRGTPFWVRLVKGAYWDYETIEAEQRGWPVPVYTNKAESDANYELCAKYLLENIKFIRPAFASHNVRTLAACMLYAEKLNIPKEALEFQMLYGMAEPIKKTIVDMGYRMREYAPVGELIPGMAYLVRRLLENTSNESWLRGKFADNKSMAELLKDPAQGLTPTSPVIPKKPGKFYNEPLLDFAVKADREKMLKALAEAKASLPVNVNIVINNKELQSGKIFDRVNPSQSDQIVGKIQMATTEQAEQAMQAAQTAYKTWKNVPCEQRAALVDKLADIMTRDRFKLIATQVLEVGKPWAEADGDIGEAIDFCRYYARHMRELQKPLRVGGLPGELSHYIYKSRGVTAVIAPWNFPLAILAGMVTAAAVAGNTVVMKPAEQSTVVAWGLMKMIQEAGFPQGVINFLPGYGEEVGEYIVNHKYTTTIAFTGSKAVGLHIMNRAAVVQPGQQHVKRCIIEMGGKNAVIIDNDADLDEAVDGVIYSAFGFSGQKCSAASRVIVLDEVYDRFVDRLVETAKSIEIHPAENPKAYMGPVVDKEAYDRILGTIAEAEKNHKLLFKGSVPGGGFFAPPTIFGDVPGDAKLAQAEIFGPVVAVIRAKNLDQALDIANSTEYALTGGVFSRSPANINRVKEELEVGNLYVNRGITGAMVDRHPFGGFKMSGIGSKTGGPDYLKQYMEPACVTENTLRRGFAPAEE
# Assays:
# [1] = molecular target: Desulfovibrio vulgaris proline utilization A (Desulfovibrio vulgaris str. Hildenborough); assay: SAXS
# [2] = molecular target: T1, Bdellovibrio bacteriovorus proline utilization A (BbPutA); assay: X-ray crystal structure, […] Å, of the covalently inactivated enzyme; type: binding
# SAXS = molecular target: the molecule itself; assay: SAXS
# AUC [3] = molecular target: the molecule itself; assay: AUC
# AUC [4] = molecular target: the molecule itself; assay: AUC; remark: listed apart in the source
molecule,measurement,setting,value
Desulfovibrio vulgaris proline utilization A (enzyme),stoichiometry N,[1],2
"C#CCNCC(=O)O [compound 1, N-propargylglycine]","X-ray crystal structure, 2.2 Å, of the covalently inactivated enzyme",[2],3-carbon link between Lys196 and the N5 of the FAD consistent with the presence of a covalent NPPG modification
"Bdellovibrio bacteriovorus proline utilization A (enzyme, Bdellovibrio bacteriovorus HD100, UniProt Q6MNK1 1-982, looked up) MNDIQSQIVSRGEEILKRMESQSKASIFSKDFWYGSIMEWSMKNEKFKTNMFRFVDVLPSINSGDEVARHLKEYFSEDGGTLPPVFNVGLGLGSLAPGLMAGAIKKNVMGMAKMFITGESPDEALPVLKKARKNKMTFTVDILGEATLSEKEAQDYSNKYMELVTWLAKDAEKWDEVPQIDRDHEGALPKVNVSVKMTALYSQIKDAAWDESKKILKDRLRPVFRLGMEKGVFVNLDMEQYSVKHLTLEVFTELINEPEFKNYKFFGIVIQAYLRDSFEDVKSLTEFAQKRGTPFWVRLVKGAYWDYETIEAEQRGWPVPVYTNKAESDANYELCAKYLLENIKFIRPAFASHNVRTLAACMLYAEKLNIPKEALEFQMLYGMAEPIKKTIVDMGYRMREYAPVGELIPGMAYLVRRLLENTSNESWLRGKFADNKSMAELLKDPAQGLTPTSPVIPKKPGKFYNEPLLDFAVKADREKMLKALAEAKASLPVNVNIVINNKELQSGKIFDRVNPSQSDQIVGKIQMATTEQAEQAMQAAQTAYKTWKNVPCEQRAALVDKLADIMTRDRFKLIATQVLEVGKPWAEADGDIGEAIDFCRYYARHMRELQKPLRVGGLPGELSHYIYKSRGVTAVIAPWNFPLAILAGMVTAAAVAGNTVVMKPAEQSTVVAWGLMKMIQEAGFPQGVINFLPGYGEEVGEYIVNHKYTTTIAFTGSKAVGLHIMNRAAVVQPGQQHVKRCIIEMGGKNAVIIDNDADLDEAVDGVIYSAFGFSGQKCSAASRVIVLDEVYDRFVDRLVETAKSIEIHPAENPKAYMGPVVDKEAYDRILGTIAEAEKNHKLLFKGSVPGGGFFAPPTIFGDVPGDAKLAQAEIFGPVVAVIRAKNLDQALDIANSTEYALTGGVFSRSPANINRVKEELEVGNLYVNRGITGAMVDRHPFGGFKMSGIGSKTGGPDYLKQYMEPACVTENTLRRGFAPAEE",stoichiometry N,SAXS,2
"Bdellovibrio bacteriovorus proline utilization A inactivated by N-propargylglycine (enzyme, Bdellovibrio bacteriovorus HD100, UniProt Q6MNK1 1-982, looked up, Lys196 covalently linked to the N5 atom of the FAD by a 3-carbon link (inactivation by N-propargylglycine)) MNDIQSQIVSRGEEILKRMESQSKASIFSKDFWYGSIMEWSMKNEKFKTNMFRFVDVLPSINSGDEVARHLKEYFSEDGGTLPPVFNVGLGLGSLAPGLMAGAIKKNVMGMAKMFITGESPDEALPVLKKARKNKMTFTVDILGEATLSEKEAQDYSNKYMELVTWLAKDAEKWDEVPQIDRDHEGALPKVNVSVKMTALYSQIKDAAWDESKKILKDRLRPVFRLGMEKGVFVNLDMEQYSVKHLTLEVFTELINEPEFKNYKFFGIVIQAYLRDSFEDVKSLTEFAQKRGTPFWVRLVKGAYWDYETIEAEQRGWPVPVYTNKAESDANYELCAKYLLENIKFIRPAFASHNVRTLAACMLYAEKLNIPKEALEFQMLYGMAEPIKKTIVDMGYRMREYAPVGELIPGMAYLVRRLLENTSNESWLRGKFADNKSMAELLKDPAQGLTPTSPVIPKKPGKFYNEPLLDFAVKADREKMLKALAEAKASLPVNVNIVINNKELQSGKIFDRVNPSQSDQIVGKIQMATTEQAEQAMQAAQTAYKTWKNVPCEQRAALVDKLADIMTRDRFKLIATQVLEVGKPWAEADGDIGEAIDFCRYYARHMRELQKPLRVGGLPGELSHYIYKSRGVTAVIAPWNFPLAILAGMVTAAAVAGNTVVMKPAEQSTVVAWGLMKMIQEAGFPQGVINFLPGYGEEVGEYIVNHKYTTTIAFTGSKAVGLHIMNRAAVVQPGQQHVKRCIIEMGGKNAVIIDNDADLDEAVDGVIYSAFGFSGQKCSAASRVIVLDEVYDRFVDRLVETAKSIEIHPAENPKAYMGPVVDKEAYDRILGTIAEAEKNHKLLFKGSVPGGGFFAPPTIFGDVPGDAKLAQAEIFGPVVAVIRAKNLDQALDIANSTEYALTGGVFSRSPANINRVKEELEVGNLYVNRGITGAMVDRHPFGGFKMSGIGSKTGGPDYLKQYMEPACVTENTLRRGFAPAEE",stoichiometry N,AUC [3],2
"Bradyrhizobium japonicum proline utilization A (enzyme, UniProt Q89E26 1-999, looked up) MPNIPPPFTAPYAPDDAEIAARLLPASHLSPPQEARIHRTATRLIEAIRKRDDRLGGVEDMLREFALSTKEGLALMVLAEALLRVPDARTADQFIEDKLGEGDFIHHETKSTAFLVNASAWALGLSARVIQPGETPDGTIGRLVKRLGAPAVRTATRQAMRLMGNHFVLGETIEQALERGKPRSGQKTRYSFDMLGEGARTAADARRYFDAYASAIETIGKAAGNHALPDRPGISVKLSALHPRFEAISRARVMVELVPQLLDLAQRAKAHDLNFTVDAEEADRLELSLDVIAATLADPSLKGWDGFGLAIQAYQKRASAVIDYVDALARAHDRKLMVRLVKGAYWDTEIKRAQERGLDGYPVFTRKAMTDLNYVACASKLLALRPRIFPQFATHNALTVATVLEMAEGSSGFEFQRLHGMGEALYEQLAKDHADIAYRTYAPVGSHRDLLAYLVRRLLENGANSSFVAQAADYRVPVPALLQRPADAIVRPQAAAHPRIPLPCDLFAPERRNSRGVEFGARTALDQLLTDVKAETGDLKPIADATPDQAHAAVAAARAGFAGWSRTPAGIRAAALEQAAHLLESRSAHFIALLQREGGKTLDDALSELREAADFCRYYAAQGRKLFGSETAMPGPTGESNALTMRGRGVFVAISPWNFPLAIFLGQVTAALMAGNSVVAKPAEQTPRIAREAVALLHEAGIPKSALYLVTGDGRIGAALTAHPDIAGVVFTGSTEVARSINRALAAKDGPIVPLIAETGGINAMIADATALPEQVADDVVTSAFRSAGQRCSALRLLFVQEDVADRMIEMVAGAARELKIGDPSDVATHVGPVIDVEAKQRLDAHIARMKTEARLHFAGPAPEGCFVAPHIFELTEAGQLTEEVFGPILHVVRYRPENLERVLRAIERTGYGLTLGVHSRIDDSIEAIIDRVQVGNIYVNRNMIGAVVGVQPFGGNGLSGTGPKAGGPHYLARFATEQTVTINTAAAGGNAALLAGEE",stoichiometry N,AUC [4],4
